Experimental findings from publication PMC11703230 (bioRxiv, 2025) are described below.

Test in all cases: cross-linking
The data set “cross-linking” deals with the molecule itself.
The target of data set [1] is Sir3 winged helix deletion (Sir3 1-850) (S. cerevisiae, UniProt P06701 1-850).
Data set [2] concerns the target Sir2 (untagged final), full-length (S. cerevisiae, UniProt P06700 1-562).

Sir2 (untagged final), full-length, sequence (P06700 whole entry): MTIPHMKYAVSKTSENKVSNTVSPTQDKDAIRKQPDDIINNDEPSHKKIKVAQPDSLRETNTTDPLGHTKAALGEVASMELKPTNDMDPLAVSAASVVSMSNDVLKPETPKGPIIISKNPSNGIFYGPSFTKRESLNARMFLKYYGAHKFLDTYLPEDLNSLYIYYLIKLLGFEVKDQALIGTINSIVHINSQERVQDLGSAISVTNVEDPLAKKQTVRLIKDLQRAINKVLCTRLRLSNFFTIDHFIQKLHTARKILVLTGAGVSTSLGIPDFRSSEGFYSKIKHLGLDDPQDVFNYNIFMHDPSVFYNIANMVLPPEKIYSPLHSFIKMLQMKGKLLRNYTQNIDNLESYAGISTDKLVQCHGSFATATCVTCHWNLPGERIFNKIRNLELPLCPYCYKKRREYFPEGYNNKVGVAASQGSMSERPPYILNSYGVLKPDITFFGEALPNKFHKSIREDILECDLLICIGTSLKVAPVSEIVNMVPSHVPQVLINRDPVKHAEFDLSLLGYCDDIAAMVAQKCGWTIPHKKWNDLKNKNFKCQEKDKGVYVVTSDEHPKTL
Sir3 winged helix deletion (Sir3 1-850), sequence (P06701 1-850, stated change not applied): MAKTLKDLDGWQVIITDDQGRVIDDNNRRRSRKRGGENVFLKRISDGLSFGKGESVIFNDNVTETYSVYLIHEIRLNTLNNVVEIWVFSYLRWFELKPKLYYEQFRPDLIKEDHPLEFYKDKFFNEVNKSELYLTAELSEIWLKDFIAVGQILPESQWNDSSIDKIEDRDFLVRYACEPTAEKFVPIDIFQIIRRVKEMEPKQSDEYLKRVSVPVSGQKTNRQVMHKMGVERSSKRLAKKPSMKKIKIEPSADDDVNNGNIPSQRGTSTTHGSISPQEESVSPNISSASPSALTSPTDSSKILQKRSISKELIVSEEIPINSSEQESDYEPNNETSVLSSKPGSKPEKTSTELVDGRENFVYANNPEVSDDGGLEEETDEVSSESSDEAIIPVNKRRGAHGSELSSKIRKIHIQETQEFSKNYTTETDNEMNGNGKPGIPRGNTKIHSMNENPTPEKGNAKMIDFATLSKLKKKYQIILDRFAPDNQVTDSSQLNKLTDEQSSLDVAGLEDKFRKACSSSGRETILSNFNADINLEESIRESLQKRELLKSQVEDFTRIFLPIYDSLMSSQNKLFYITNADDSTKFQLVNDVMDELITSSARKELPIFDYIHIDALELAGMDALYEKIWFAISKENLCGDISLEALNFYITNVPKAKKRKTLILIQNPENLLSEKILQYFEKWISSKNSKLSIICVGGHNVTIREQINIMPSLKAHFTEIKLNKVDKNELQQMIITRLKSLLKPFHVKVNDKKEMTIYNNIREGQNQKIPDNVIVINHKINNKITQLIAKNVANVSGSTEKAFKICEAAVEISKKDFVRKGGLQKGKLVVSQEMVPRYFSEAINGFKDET

B1: MBP-Sir4(744-1358) (domain or fragment, S. cerevisiae, UniProt P11978 744-1358, looked up)
chain: PGKMELVYVSDSDDSSSDNDSLTDLESLSSGESNEIKVTNDLDTSAEKDQIQAGKWFDPVLDWRKSDRELTKNILWRIADKTTYDKETITDLIEQGIPKHSYLSGNPLTSVTNDICSVENYETSSAFFYQQVHKKDRLQYLPLYAVSTFENTNNTEKNDVTNKNINIGKHSQEQNSSSAKPSQIPTVSSPLGFEETKLSTTPTKSNRRVSHSDTNSSKPKNTKENLSKSSWRQEWLANLKLISVSLVDEFPSELSDSDRQIINEKMQLLKDIFANNLKSAISNNFRESDIIILKGEIEDYPMSSEIKIYYNELQNKPDAKKARFWSFMKTQRFVSNMGFDIQKSCEPVSISTSVKPHVVEPEHMADAKIMPKDILQITKKPLMVKNVKPSSPPDVKSLVQLSTMETKTLPEKKQFDSIFNSNKAKIIPGNGKHASENISLSFSRPASYGYFSVGKRVPIVEDRRVKQLDDITDSNTTEILTSVDVLGTHSQTGTQQSNMYTSTQKTELEIDNKDSVTECSKDMKEDGLSFVDIVLSKAASALDEKEKQLAVANEIIRSLSDEVMRNEIRITSLQGDLTFTKKCLENARSQISEKDAKINKLMEKDFQVNKEIKPY
For B1, the binding result (in the data set “cross-linking”; in data set [1]) was “binds” throughout.

B2: MBP-Sir4(1150-1358) (domain or fragment, S. cerevisiae, UniProt P11978 1150-1358, looked up)
chain: KTLPEKKQFDSIFNSNKAKIIPGNGKHASENISLSFSRPASYGYFSVGKRVPIVEDRRVKQLDDITDSNTTEILTSVDVLGTHSQTGTQQSNMYTSTQKTELEIDNKDSVTECSKDMKEDGLSFVDIVLSKAASALDEKEKQLAVANEIIRSLSDEVMRNEIRITSLQGDLTFTKKCLENARSQISEKDAKINKLMEKDFQVNKEIKPY
As for B2, the binding result in data set [2] is “binds”.
